To fix the notation:
B1: ACSBG2 (parent)
chain: FAQADALKGTLVSTLKEVKPTVFI
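Further: lentivirally expressed fusions sorted by FACS into six bins by GFP to DsRed ratio, PSI derived from sequencing read proportions per bin multiplied by bin number.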

Variants of B1 are the subject of this data set. Put plainly: protein stability index of a GFP-peptide fusion (GPS, HEK-293T) (PSI 1-6); higher = more stable. The following applies: c terminus: a fixed tail appended.
As to FAQADALKGTLVSTLKEVKPTVFF, the protein stability index came out at 4.5.
As for FAQADALKGTLVSTLKEVKPTVFH, the figure is 2.02.
Next, FAQADALKGTLVSTLKEVKPTVFS: 2.27; FAQADALKGTLVSTLKEVKPTVFK: 2.41.
Next, FAQADALKGTLVSTLKEVKPTVFD: 2.88; FAQADALKGTLVSMLKEVKPTVFI: 1.32; FAQADALKGTLVSHLKEVKPTVFI: 2.27.
As for FAQADALKGTLVSVLKEVKPTVFI, the protein stability index came out at 2.05.
As to TAQADALKGTLVSTLKEVKPTVFI, the protein stability index stood at 2.33.
As for KAQADALKGTLVSTLKEVKPTVFI, the figure is 2.25; as for WAQADALKGTLVSTLKEVKPTVFI, 1.46; as for FAQADALKGTLVSTLKEVFPTVFI, 3.16.
As for FAQADALKGTLVSTLKEVSPTVFI, the figure is 2.45.
As for FAQADALKGTLVSTLKEVAPTVFI, the figure is 2.49.
Consider FAQADALKGTLVSTLKEVMPTVFI, for which the protein stability index came to 3.1.
As for FAQAIALKGTLVSTLKEVKPTVFI, the figure is 2.7; as for FAQAEALKGTLVSTLKEVKPTVFI, 1.26.
As to FAQARALKGTLVSTLKEVKPTVFI, the protein stability index turned out to be 1.55.
Next, FAQADALKGTLVHTLKEVKPTVFI: 1.84.
On to FAQADALKGTLVCTLKEVKPTVFI, for which the protein stability index stood at 1.93.
For FAQADALKGTLVKTLKEVKPTVFI, the protein stability index was 3.44.
Next, FAQADALKGTLVYTLKEVKPTVFI: 3.19; FAQADALKGTLVLTLKEVKPTVFI: 2.05; FAQADALKGTLVMTLKEVKPTVFI: 3.57.
As for FAQADALKGTLVSTLKEVKPKVFI, the figure is 1.14; as for FAQADALKGTLVSTLKEVKPAVFI, 1.36; as for FAQADALKGTLVSTLKEVKPIVFI, 4.12.
Regarding FAQADALKGTLVSTLKEVKPGVFI, the protein stability index is 2.14.
Next, FAQADALKGTLVSTLKEVKPDVFI: 1.82.
As for FIQADALKGTLVSTLKEVKPTVFI, the figure is 1.22; as for FQQADALKGTLVSTLKEVKPTVFI, 1.64.
Next, FMQADALKGTLVSTLKEVKPTVFI: 1.79; FAQADALKGTLVSTLKEVKPTYFI: 1.67.
As to FAQADALKGTLVSTLKEVKPTLFI, the protein stability index turned out to be 1.3.
As for FAQADALKGTHVSTLKEVKPTVFI, the figure is 1.72; as for FAQADALKGTMVSTLKEVKPTVFI, 2.41; as for FAQADALKGTLMSTLKEVKPTVFI, 1.66.
Next, FAQADELKGTLVSTLKEVKPTVFI: 1.95; FAQADYLKGTLVSTLKEVKPTVFI: 3.07; FAQADPLKGTLVSTLKEVKPTVFI: 1.69.
Regarding FAQADQLKGTLVSTLKEVKPTVFI, the protein stability index amounted to 1.54.
Next, FAQADSLKGTLVSTLKEVKPTVFI: 2.08.
As for FAQADRLKGTLVSTLKEVKPTVFI, the figure is 1.67; as for FAQADHLKGTLVSTLKEVKPTVFI, 1.61.
Next, FAQADALKGTLVSTLKESKPTVFI: 1.98.
For FAQADALKGTLVSTLKEKKPTVFI, the protein stability index stood at 1.92.
As to FAQADALKGTLVSTLKEGKPTVFI, the protein stability index worked out at 1.79.
As for FAQADALKGTLVSTLKEQKPTVFI, the figure is 2.04; as for FAQADALKGTLVSTLKKVKPTVFI, 1.45.
Next, FAQADALKGTLVSTLKDVKPTVFI: 1.48; FAQADALKGTLVSTLKQVKPTVFI: 1.73; FAQADALKGFLVSTLKEVKPTVFI: 2.23.
Next, FAQADALKGKLVSTLKEVKPTVFI: 1.98; FAQADALKGHLVSTLKEVKPTVFI: 2.91.
For FAQADALKGRLVSTLKEVKPTVFI, the protein stability index was 2.62.
In the case of FAQADALKGELVSTLKEVKPTVFI, the protein stability index worked out at 1.65.
As for FAQADALKGNLVSTLKEVKPTVFI, the figure is 1.61; as for FAQADALKGTLVSTLKEVKPTVVI, 2.18; as for FAQADALKGTLVSTLKEVKPTVSI, 2.16.
Next, FAQADALKGTLVSTLKEVKPTVLI: 2.52; FAQADALKGTLVSTLKEVKPTVPI: 2.76; FAQADALKGTLVSTLKEVKPTVCI: 2.52.
Next, FAQADALKGTLVSTLREVKPTVFI: 1.45; FAQGDALKGTLVSTLKEVKPTVFI: 2.44; FAQEDALKGTLVSTLKEVKPTVFI: 2.77.
For the variant FAQDDALKGTLVSTLKEVKPTVFI, the protein stability index was determined as 2.74.
Next, FAQIDALKGTLVSTLKEVKPTVFI: 1.66; FAQADALKPTLVSTLKEVKPTVFI: 2.01.
On to FAQADALKYTLVSTLKEVKPTVFI, for which the protein stability index stood at 1.78.
Next, FAQADALKSTLVSTLKEVKPTVFI: 2.84.
For the variant FAQADALKTTLVSTLKEVKPTVFI, the protein stability index is 1.38.
In the case of FAQADALKITLVSTLKEVKPTVFI, the protein stability index was 4.73.
Next, FAQADALKVTLVSTLKEVKPTVFI: 2.61; FAQADALKETLVSTLKEVKPTVFI: 1.5.
Next, FAQADALKGTLVSTLKEVKFTVFI: 2.4; FAQADALKGTLVSTVKEVKPTVFI: 1.06; FAQADALKGTLVSTEKEVKPTVFI: 2.39.
Next, FAQADALKGTLVSTDKEVKPTVFI: 2.19; FAQADALKGTLVSTYKEVKPTVFI: 1.78.
Regarding FAQADALKGTLVSTPKEVKPTVFI, the protein stability index is 2.
As for FAQADALKGTLVSTSKEVKPTVFI, the figure is 1.96.
Next, FAQADALKGTLVSTKKEVKPTVFI: 1.8.
As to FAQADALGGTLVSTLKEVKPTVFI, the protein stability index worked out at 2.31.
Turning to FAQADALCGTLVSTLKEVKPTVFI, the protein stability index is 1.85.
Next, FAQADALTGTLVSTLKEVKPTVFI: 3.3.
As for FAQADAAKGTLVSTLKEVKPTVFI, the figure is 2.1; as for FAQADAQKGTLVSTLKEVKPTVFI, 2.11; as for FAQADANKGTLVSTLKEVKPTVFI, 1.73.
Next, FAFADALKGTLVSTLKEVKPTVFI: 3.71; FANADALKGTLVSTLKEVKPTVFI: 3.49; FAGADALKGTLVSTLKEVKPTVFI: 3.16.
Turning to FAAADALKGTLVSTLKEVKPTVFI, the protein stability index worked out at 1.86.
As for FAYADALKGTLVSTLKEVKPTVFI, the figure is 1.45.
On to FALADALKGTLVSTLKEVKPTVFI, for which the protein stability index stood at 2.44.

The record behind these values is the supplement of paper PMC10567573.
